Results taken from the RNAGym collection of RNA variant scans (doi:10.7554/elife.80360).

B1: HDV Ribozyme (parent)
chain: GGCCGGCAUGGUCCCAGCCUCCUCGCUGGCGCCGGCUGGGCAACAUUCCGAGGGGACCGUCCCCUCGGUAAUGGCGAAUGGGACCCA

Variants of: B1
Assay: self-cleavage, relative activity (ratio to wild type); higher = more cleavage; co-transcriptional

Compared with G68A U72A, C75A C85G is lower in self-cleavage: 0.396 for the first, 0.116 for the second.

First: G31C G82C
Second: A70C C85A
The self-cleavage of the first is lower: 0.134 for the first, 0.883 for the second.

Compared with C15U C36U, U12C A51C is lower in self-cleavage: 0.886 for the first, 0.378 for the second.

Compared with G6A U47G, C14A C58A is higher in self-cleavage: 1.01 for the first, 1.17 for the second.

First: G39A G67A
Second: U47A C63A
The self-cleavage of the first is lower: 0.453 for the first, 0.96 for the second.

First: C24G C62A
Second: A70G A87G
The self-cleavage of the first is lower: 0.0272 for the first, 1.01 for the second.

Compared with C58U U65A, G10C G80U is lower in self-cleavage: 1.17 for the first, 0.219 for the second.

First: U65A C84U
Second: U12G G39U
The self-cleavage of the first is higher: 0.799 for the first, 0.447 for the second.

First: C4G U23C
Second: G31A A70G
The self-cleavage of the first is lower: 0.208 for the first, 0.4 for the second.

Going from G5C G29A to A42G A71C, the self-cleavage rises from 0.147 to 0.151.

First: G17U G76A
Second: G10U U79G
The self-cleavage of the first is higher: 0.73 for the first, 0.38 for the second.

Compared with C44U G54C, G11C G54U is lower in self-cleavage: 0.694 for the first, 0.289 for the second.

Compared with C13A G82U, G59C G68C is higher in self-cleavage: 0.904 for the first, 1.11 for the second.

Compared with G40U U69G, U12A G29A is lower in self-cleavage: 0.727 for the first, 0.113 for the second.

Compared with C4U A70G, C48A U79G is higher in self-cleavage: 0.541 for the first, 0.982 for the second.

First: C19U U23C
Second: C26G U69A
The self-cleavage of the first is lower: 0 for the first, 0.886 for the second.

Compared with C19G U27G, C4A C15A is higher in self-cleavage: 0 for the first, 0.198 for the second.

First: C18U C21U
Second: C19G G28C
The self-cleavage of the first is lower: 0.0911 for the first, 0.912 for the second.

Compared with A42U G80A, G38U G76A is lower in self-cleavage: 0.16 for the first, 0.145 for the second.

Compared with C61G A77U, C26U U47G is higher in self-cleavage: 0.394 for the first, 0.877 for the second.

First: A51C G73A
Second: C58A C63U
The self-cleavage of the first is lower: 0.383 for the first, 1.02 for the second.

Going from C22G U60C to G81C A83U, the self-cleavage rises from 0.0332 to 0.237.

Compared with U37C C84U, C58U U79G is lower in self-cleavage: 0.655 for the first, 0.612 for the second.

Going from C15A C57U to C7A C32G, the self-cleavage falls from 0.8 to 0.

Going from C21A G59A to C15U U27C, the self-cleavage rises from 0.0936 to 0.712.

Going from A8G C44U to G25U A83C, the self-cleavage falls from 0.475 to 0.0386.

Going from A8U C32A to A16G C30G, the self-cleavage rises from 0 to 0.122.

Going from G34C C36A to A16U U65G, the self-cleavage rises from 0.0707 to 0.997.

Compared with C32G G54U, G53C A87C is higher in self-cleavage: 0.153 for the first, 1.01 for the second.

First: U47C C84U
Second: C64A G80C
The self-cleavage of the first is higher: 0.475 for the first, 0.125 for the second.

First: A71C A77G
Second: C21U U46A
The self-cleavage of the first is higher: 0.569 for the first, 0.511 for the second.

First: G25U A78C
Second: G10C C49A
The self-cleavage of the first is lower: 0.0665 for the first, 0.443 for the second.

First: U27G G73C
Second: G2A G10A
The self-cleavage of the first is higher: 0.0978 for the first, 0.0256 for the second.

First: U60A G81C
Second: U27A U60G
The self-cleavage of the first is lower: 0.0811 for the first, 0.59 for the second.

Compared with G54U C63U, U47A G82U is lower in self-cleavage: 0.892 for the first, 0.142 for the second.

Going from C3A C33G to U9C C26U, the self-cleavage rises from 0 to 1.17.

Compared with C21G G59C, G25C U69C is higher in self-cleavage: 0.106 for the first, 0.175 for the second.

Compared with A51G A56C, U27C C64G is lower in self-cleavage: 0.733 for the first, 0.652 for the second.

Compared with G10A C64A, G1U G34C is lower in self-cleavage: 0.646 for the first, 0.155 for the second.

Compared with C48U G80A, C14U C57U is higher in self-cleavage: 0.297 for the first, 0.878 for the second.

First: C36A G54A
Second: C18U U23A
The self-cleavage of the first is lower: 0.0804 for the first, 0.519 for the second.

Compared with G2C G11U, C26A C62G is higher in self-cleavage: 0.0519 for the first, 0.63 for the second.
